Results: publication PMC4349446

Target: Recombinant truncated LOX-1 (61–273 amino acids, extracellular domain) with a hexa-histidine tag (human) (UniProt P78380)
Assay: ELISA; human LOX-1 (1 μg/ml) coated on wells; hSAA3 peptide 10–2,000 ng/ml in PBS-0.05% Tween20–0.5% Triton X-100; retained peptide detected with monoclonal anti-hSAA3-HRP

Kd: 99 nM
Substance: hSAA3 C-terminal 26 mer synthetic peptide
